Data reported in paper PMC5593925.

Assays:
[1] = biological target: plasminogen (affinity column for M. pneumoniae lysate; microscale thermophoresis); test: MST; fluorescently labelled host protein, Ef-Tu unlabelled; 40%, 60% and 80% MST power, 30 s
[2] = biological target: actin (UniProt P68135); test: MST
[3] = biological target: fetuin (UniProt P12763); test: MST; fluorescently labelled host protein, Ef-Tu unlabelled; 40%, 60% and 80% MST power, 30 s
Chain of UniProt P12763 (P12763 19-359): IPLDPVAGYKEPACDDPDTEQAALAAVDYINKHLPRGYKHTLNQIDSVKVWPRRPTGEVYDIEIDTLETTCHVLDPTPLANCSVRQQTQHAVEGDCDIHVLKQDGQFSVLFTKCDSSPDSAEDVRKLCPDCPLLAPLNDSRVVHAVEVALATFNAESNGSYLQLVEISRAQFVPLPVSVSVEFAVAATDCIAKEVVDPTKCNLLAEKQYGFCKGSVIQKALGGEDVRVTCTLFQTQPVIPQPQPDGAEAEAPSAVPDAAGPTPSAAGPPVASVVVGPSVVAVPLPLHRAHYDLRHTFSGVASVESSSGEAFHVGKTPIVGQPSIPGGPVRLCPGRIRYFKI

| Substance | Kd [1] | Kd [2] | Kd [3] |
| --- | --- | --- | --- |
| recombinant Elongation factor Tu of Mycoplasma pneumoniae (from UniProt P23568 1-394) (natural protein) | 933 nM | 19 nM |  |
| recombinant Elongation factor Tu of Mycoplasma pneumoniae (from UniProt P23568 1-394) (natural protein; other documents disagree on this pair) |  |  | 53 nM |
